Source: patent US20060135432A1, “Agonists and antagonists of conadotropin-releasing hormone-2, and use thereof” (priority 2002, published 2006)
[ ]: non-standard residue; d: D form. dPhe(4-Cl) = N[C@H](Cc1ccc(Cl)cc1)C(=O)O; d2Nal = N[C@H](Cc1ccc2ccccc2c1)C(=O)O; dCit = NC(=O)NCCC[C@@H](N)C(=O)O; d3Pal = N[C@H](Cc1cccnc1)C(=O)O

Legend:
[1] = molecular target: bfGnRHR-3 (bullfrog); assay: cell-based or functional assay; settings: for Log IC50, inhibition of GnRH-2-induced inositol phosphate production in GH3 cells expressing the receptor: scale: log IC50
[2] = molecular target: rat GnRHR (rat) (UniProt P30969); assay: cell-based or functional assay; settings: scale: log IC50
rat GnRHR (rat), sequence (P30969 whole entry): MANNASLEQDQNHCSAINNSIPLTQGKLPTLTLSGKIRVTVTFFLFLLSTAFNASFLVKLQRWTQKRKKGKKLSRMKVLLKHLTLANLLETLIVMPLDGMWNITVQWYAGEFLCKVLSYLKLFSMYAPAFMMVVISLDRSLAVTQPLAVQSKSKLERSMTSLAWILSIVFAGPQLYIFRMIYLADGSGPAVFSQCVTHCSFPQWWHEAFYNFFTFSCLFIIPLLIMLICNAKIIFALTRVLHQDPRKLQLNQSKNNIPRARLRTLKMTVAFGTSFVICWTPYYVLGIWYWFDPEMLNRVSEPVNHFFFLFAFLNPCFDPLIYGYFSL

[3] = molecular target: bfGnRHR-3 (bullfrog); assay: displacement of I^125-GnRH-2 from membranes of GH3 cells expressing bfGnRHR-3; settings: scale: log IC50
[4] = molecular target: rat GnRHR (rat) (UniProt P30969); assay: displacement of I^125-GnRH-2 from membranes of GH3 cells expressing rat GnRHR; settings: scale: log IC50

inhibition of GnRH-2-induced IP production, sensitivity compared with Cetrorelix (fold more sensitive than Cetrorelix) [1] | Log IC50, inhibition of GnRH-2-induced inositol phosphate production in GH3 cells expressing the receptor [1] | Log IC50, inhibition of GnRH-induced inositol phosphate production in GH3 cells expressing the receptor [2] | log IC50 [3] | log IC50 [4] | Binder
1000 | -8.49 | -9.27 | -11.7 | -11.8 | Ac-[d2Nal][dPhe(4-Cl)][d3Pal]SY[dCit]WYP[dA]-NH2 [Trptorelix-1]
– | -6.28 | -11 | -7.11 | -12.6 | Ac-[d2Nal][dPhe(4-Cl)][d3Pal]SY[dCit]LRP[dA]-NH2 [Cetrorelix]
